According to US20140274782A1, “AFFINITY REAGENTS AND METHODS FOR DETECTION, PURIFICATION, AND PROTEOMIC ANALYSIS OF METHYLATED PROTEINS” (The Board of Trustees of the Leland Stanford Junior …, priority 2013, published 2014):

T1: G9a and GLP (Homo sapiens, UniProt Q96KQ7+Q9H9B1)
T1 sequence (Q96KQ7 2-1210 limits assumed): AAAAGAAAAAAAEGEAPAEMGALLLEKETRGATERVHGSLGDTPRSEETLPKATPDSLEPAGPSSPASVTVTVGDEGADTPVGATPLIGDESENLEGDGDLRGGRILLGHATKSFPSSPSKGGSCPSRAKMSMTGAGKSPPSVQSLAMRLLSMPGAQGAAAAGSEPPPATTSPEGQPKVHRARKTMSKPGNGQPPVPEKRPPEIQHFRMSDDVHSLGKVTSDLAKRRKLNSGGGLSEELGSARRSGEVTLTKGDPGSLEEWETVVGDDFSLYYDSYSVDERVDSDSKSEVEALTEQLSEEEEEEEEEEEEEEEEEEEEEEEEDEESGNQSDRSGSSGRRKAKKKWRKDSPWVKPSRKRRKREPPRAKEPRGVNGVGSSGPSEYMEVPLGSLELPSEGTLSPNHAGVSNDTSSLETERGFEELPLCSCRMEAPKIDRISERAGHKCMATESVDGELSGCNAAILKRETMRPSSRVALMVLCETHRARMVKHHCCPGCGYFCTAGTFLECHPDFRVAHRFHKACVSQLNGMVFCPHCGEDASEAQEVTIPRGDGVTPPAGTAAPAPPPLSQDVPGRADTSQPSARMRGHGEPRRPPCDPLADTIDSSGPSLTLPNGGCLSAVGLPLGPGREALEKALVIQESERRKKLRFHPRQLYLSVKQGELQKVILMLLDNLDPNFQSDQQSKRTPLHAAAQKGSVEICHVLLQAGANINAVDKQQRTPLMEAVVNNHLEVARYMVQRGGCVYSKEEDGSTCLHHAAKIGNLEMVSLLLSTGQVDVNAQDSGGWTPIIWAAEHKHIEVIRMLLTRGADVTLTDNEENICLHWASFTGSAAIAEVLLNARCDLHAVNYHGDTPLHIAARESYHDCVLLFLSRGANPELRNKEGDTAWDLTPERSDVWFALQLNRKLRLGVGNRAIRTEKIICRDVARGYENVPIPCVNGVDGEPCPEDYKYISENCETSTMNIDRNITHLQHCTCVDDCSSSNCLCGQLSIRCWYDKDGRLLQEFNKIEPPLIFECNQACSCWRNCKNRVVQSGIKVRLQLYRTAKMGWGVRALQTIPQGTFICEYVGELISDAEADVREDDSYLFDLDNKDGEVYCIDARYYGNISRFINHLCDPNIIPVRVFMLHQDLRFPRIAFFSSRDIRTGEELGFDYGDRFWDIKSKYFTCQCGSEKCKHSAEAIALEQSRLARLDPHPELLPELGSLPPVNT
T1 sequence (Q9H9B1 2-1298 limits assumed): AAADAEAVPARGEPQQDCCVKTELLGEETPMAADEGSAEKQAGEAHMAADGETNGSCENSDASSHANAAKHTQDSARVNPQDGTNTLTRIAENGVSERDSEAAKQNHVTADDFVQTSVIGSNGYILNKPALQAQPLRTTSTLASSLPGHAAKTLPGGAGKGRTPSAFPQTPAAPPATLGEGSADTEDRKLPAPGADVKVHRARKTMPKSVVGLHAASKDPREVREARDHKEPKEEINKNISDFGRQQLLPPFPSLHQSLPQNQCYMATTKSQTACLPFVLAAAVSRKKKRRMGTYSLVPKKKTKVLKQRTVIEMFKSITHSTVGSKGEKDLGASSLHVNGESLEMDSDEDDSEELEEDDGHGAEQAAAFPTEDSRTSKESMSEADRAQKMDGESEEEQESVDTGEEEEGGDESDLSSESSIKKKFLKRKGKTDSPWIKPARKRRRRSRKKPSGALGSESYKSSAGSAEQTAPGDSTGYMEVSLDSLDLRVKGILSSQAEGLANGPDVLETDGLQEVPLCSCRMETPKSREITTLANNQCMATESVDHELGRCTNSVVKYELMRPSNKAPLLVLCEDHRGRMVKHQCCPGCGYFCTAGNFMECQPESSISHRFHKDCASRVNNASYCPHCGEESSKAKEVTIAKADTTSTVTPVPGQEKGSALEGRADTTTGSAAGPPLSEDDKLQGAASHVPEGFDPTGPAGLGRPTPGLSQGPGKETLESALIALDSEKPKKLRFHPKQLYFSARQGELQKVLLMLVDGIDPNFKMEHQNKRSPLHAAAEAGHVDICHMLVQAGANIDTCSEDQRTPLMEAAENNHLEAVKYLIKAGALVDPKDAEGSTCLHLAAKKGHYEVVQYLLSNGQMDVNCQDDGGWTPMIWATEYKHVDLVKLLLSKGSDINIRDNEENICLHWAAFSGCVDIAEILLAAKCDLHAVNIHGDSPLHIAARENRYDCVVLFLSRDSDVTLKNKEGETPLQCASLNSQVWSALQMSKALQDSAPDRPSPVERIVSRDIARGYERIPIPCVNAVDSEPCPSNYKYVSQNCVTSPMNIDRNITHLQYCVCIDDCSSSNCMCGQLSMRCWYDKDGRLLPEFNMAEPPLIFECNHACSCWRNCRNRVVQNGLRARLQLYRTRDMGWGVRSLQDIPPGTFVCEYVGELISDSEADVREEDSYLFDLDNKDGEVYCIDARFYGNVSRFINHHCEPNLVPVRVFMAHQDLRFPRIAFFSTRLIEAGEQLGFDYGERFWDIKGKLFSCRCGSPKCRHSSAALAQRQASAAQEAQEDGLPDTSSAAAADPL

B1: ORC3 (protein, UniProt Q9UBD5 1-711, looked up)
Origin recognition complex …: MATSSMSKGCFVFKPNSKKRKISLPIEDYFNKGKNEPEDSKLRFETYQLIWQQMKSENERLQEELNKNLFDNLIEFLQKSHSGFQKNSRDLGGQIKLREIPTAALVLGVNVTDHDLTFGSLTEALQNNVTPYVVSLQAKDCPDMKHFLQKLISQLMDCCVDIKSKEEESVHVTQRKTHYSMDSLSSWYMTVTQKTDPKMLSKKRTTSSQWQSPPVVVILKDMESFATKVLQDFIIISSQHLHEFPLILIFGIATSPIIIHRLLPHAVSSLLCIELFQSLSCKEHLTTVLDKLLLTTQFPFKINEKVLQVLTNIFLYHDFSVQNFIKGLQLSLLEHFYSQPLSVLCCNLPEAKRRINFLSNNQCENIRRLPSFRRYVEKQASEKQVALLTNERYLKEETQLLLENLHVYHMNYFLVLRCLHKFTSSLPKYPLGRQIRELYCTCLEKNIWDSEEYASVLQLLRMLAKDELMTILEKCFKVFKSYCENHLGSTAKRIEEFLAQFQSLDETKEEEDASGSQPKGLQKTDLYHLQKSLLEMKELRRSKKQTKFEVLRENVVNFIDCLVREYLLPPETQPLHEVVYFSAAHALREHLNAAPRIALHTALNNPYYYLKNEALKSEEGCIPNIAPDICIAYKLHLECSRLINLVDWSEAFATVVTAAEKMDANSATSEEMNEIIHARFIRAVSELELLGFIKPTKQKTDHVARLTWGGC
B2: HPSE2 (protein, UniProt Q8WWQ2 42-592, looked up)
Inactive heparanase-2: GDRRPLPVDRAAGLKEKTLILLDVSTKNPVRTVNENFLSLQLDPSIIHDGWLDFLSSKRLVTLARGLSPAFLRFGGKRTDFLQFQNLRNPAKSRGGPGPDYYLKNYEDDIVRSDVALDKQKGCKIAQHPDVMLELQREKAAQMHLVLLKEQFSNTYSNLILTARSLDKLYNFADCSGLHLIFALNALRRNPNNSWNSSSALSLLKYSASKKYNISWELGNEPNNYRTMHGRAVNGSQLGKDYIQLKSLLQPIRIYSRASLYGPNIGRPRKNVIALLDGFMKVAGSTVDAVTWQHCYIDGRVVKVMDFLKTRLLDTLSDQIRKIQKVVNTYTPGKKIWLEGVVTTSAGGTNNLSDSYAAGFLWLNTLGMLANQGIDVVIRHSFFDHGYNHLVDQNFNPLPDYWLSLLYKRLIGPKVLAVHVAGLQRKPRPGRVIRDKLRIYAHCTNHHNHNYVRGSITLFIINLHRSRKKIKLAGTLRDKLVHQYLLQPYGQEGLKSKSVQLNGQPLVMVDDGTLPELKPRPLRAGRTLVIPPVTMGFYVVKNVNALACRYR
B3: CPSF6 (protein, UniProt Q16630 1-551, looked up)
Cleavage and polyadenylation …: MADGVDHIDIYADVGEEFNQEAEYGGHDQIDLYDDVISPSANNGDAPEDRDYMDTLPPTVGDDVGKGAAPNVVYTYTGKRIALYIGNLTWWTTDEDLTEAVHSLGVNDILEIKFFENRANGQSKGFALVGVGSEASSKKLMDLLPKRELHGQNPVVTPCNKQFLSQFEMQSRKTTQSGQMSGEGKAGPPGGSSRAAFPQGGRGRGRFPGAVPGGDRFPGPAGPGGPPPPFPAGQTPPRPPLGPPGPPGPPGPPPPGQVLPPPLAGPPNRGDRPPPPVLFPGQPFGQPPLGPLPPGPPPPVPGYGPPPGPPPPQQGPPPPPGPFPPRPPGPLGPPLTLAPPPHLPGPPPGAPPPAPHVNPAFFPPPTNSGMPTSDSRGPPPTDPYGRPPPYDRGDYGPPGREMDTARTPLSEAEFEEIMNRNRAISSSAISRAVSDASAGDYGSAIETLVTAISLIKQSKVSADDRCKVLISSLQDCLHGIESKSYGSGSRRERSRERDHSRSREKSRRHKSRSRDRHDDYYRERSRERERHRDRDRDRDRERDREREYRHR
B4: RALY (protein, UniProt Q9UKM9 2-306, looked up)
RNA-binding protein Raly: SLKLQASNVTNKNDPKSINSRVFIGNLNTALVKKSDVETIFSKYGRVAGCSVHKGYAFVQYSNERHARAAVLGENGRVLAGQTLDINMAGEPKPDRPKGLKRAASAIYSGYIFDYDYYRDDFYDRLFDYRGRLSPVPVPRAVPVKRPRVTVPLVRRVKTNVPVKLFARSTAVTTSSAKIKLKSSELQAIKTELTQIKSNIDALLSRLEQIAAEQKANPDGKKKGDGGGAGGGGGGGGSGGGGSGGGGGGGSSRPPAPQENTTSEAGLPQGEARTRDDGDEEGLLTHSEEELEHSQDTDADDGALQ
B5: HNRNPH1 (protein, UniProt P31943 1-449, looked up)
Heterogeneous nuclear …: MMLGTEGGEGFVVKVRGLPWSCSADEVQRFFSDCKIQNGAQGIRFIYTREGRPSGEAFVELESEDEVKLALKKDRETMGHRYVEVFKSNNVEMDWVLKHTGPNSPDTANDGFVRLRGLPFGCSKEEIVQFFSGLEIVPNGITLPVDFQGRSTGEAFVQFASQEIAEKALKKHKERIGHRYIEIFKSSRAEVRTHYDPPRKLMAMQRPGPYDRPGAGRGYNSIGRGAGFERMRRGAYGGGYGGYDDYNGYNDGYGFGSDRFGRDLNYCFSGMSDHRYGDGGSTFQSTTGHCVHMRGLPYRATENDIYNFFSPLNPVRVHIEIGPDGRVTGEADVEFATHEDAVAAMSKDKANMQHRYVELFLNSTAGASGGAYEHRYVELFLNSTAGASGGAYGSQMMGGMGLSNQSSYGGPASQQLSGGYGGGYGGQSSMSGYDQVLQENSSDFQSNIA

Legend:
G9a and GLP = target: T1, G9a and GLP; assay: Triple SILAC pull-down after UNC0638 treatment of 293T cells, DMSO/UNC0638 ratio of protein captured by 3×MBT; format: cell-based; set-up: endogenous in cells; host or cells: HEK 293T; conditions: for Relative to UNC0638 UNC Heavy / Relative to UNC0638 UNC Light: SILAC ratio DMSO/UNC0638 of protein pulled down with 3xMBT; for Relative to UNC0638 UNC Heavy: UNC0638 in heavy SILAC media; for Relative to UNC0638 UNC Light: UNC0638 in light SILAC media; for Relative to UNC0638 Average: average of UNC Light and UNC Heavy experiments;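 as to all read-outs here: mass spectrometry (Q-Exactive) SILAC quantitation, DMSO/UNC0638 ratio computed after subtracting 3×MBTD355N mutant pull-down background, only proteins with at least twofold 3×MBT over mutant signal considered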
3×MBT domain of L3MBTL1 = assay: Triple SILAC pull-down, 3xMBT/3xMBTD355N ratio (cytoplasmic, nuclear and chromatin fractions of 293T cells); format: binding, human; conditions: SILAC ratio, pull-down 3xMBT vs 3xMBTD355N; for 3xMBT/D355N UNC Heavy: experiment with UNC0638 in heavy SILAC media; for 3xMBT/D355N UNC Light: experiment with UNC0638 in light SILAC media;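 as to all read-outs here: proteins quantified with MaxQuant, requiring at least two unique peptides and quantification in both label directions, normalized to the mean of proteins from a digested loading control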

Molecule | Relative to UNC0638 UNC Heavy (G9a and GLP) [log base 2] | Relative to UNC0638 UNC Light (G9a and GLP) [log base 2] | Relative to UNC0638 Average (G9a and GLP) [log base 2] | 3xMBT/D355N UNC Heavy (3×MBT domain of L3MBTL1) [log base 2] | 3xMBT/D355N UNC Light (3×MBT domain of L3MBTL1) [log base 2]
B1 | 0.25 | 0.17 | 0.21 | 1.54 | 2.54
B2 |  | 4.14 | 4.14 | −0.14 | 3.81
B3 | 0.30 | 0.09 | 0.20 | 1.89 | 3.10
B4 | 0.12 | 0.31 | 0.21 | 1.15 | 3.37
B5 | 0.24 | 0.19 | 0.21 | 1.85 | 2.27
